We go through two molecules from publication PMC11005723, “Development of Complementary Photo‐arginine/lysine to Promote Discovery of Arg/Lys hPTMs Interactomes” (Advanced Science, 2024).

Non-standard residues stand in square brackets, D forms with d. No end group written: not given here. Arg(Me2a) = CN(C)C(=N)NCCC[C@H](N)C(=O)O

The Kd is the equilibrium constant for the complex coming apart. A low value points to higher affinity.

Common to all, as to experiment: ITC; 25 °C, MicroCal PEAQ-ITC; protein in the cell titrated with 19 injections of peptide
Holding throughout (conditions): both partners purified

The target of assay [1] is T1, RBBP7 (1‐ 425) (UniProt Q16576 1-425).
T1 construct: RBBP7 residues 1-425; source: Sf9 (baculovirus), purified (Ni-NTA, Resource Q, Superdex 75)
T1 sequence (Q16576 whole entry, the tested form may be a part): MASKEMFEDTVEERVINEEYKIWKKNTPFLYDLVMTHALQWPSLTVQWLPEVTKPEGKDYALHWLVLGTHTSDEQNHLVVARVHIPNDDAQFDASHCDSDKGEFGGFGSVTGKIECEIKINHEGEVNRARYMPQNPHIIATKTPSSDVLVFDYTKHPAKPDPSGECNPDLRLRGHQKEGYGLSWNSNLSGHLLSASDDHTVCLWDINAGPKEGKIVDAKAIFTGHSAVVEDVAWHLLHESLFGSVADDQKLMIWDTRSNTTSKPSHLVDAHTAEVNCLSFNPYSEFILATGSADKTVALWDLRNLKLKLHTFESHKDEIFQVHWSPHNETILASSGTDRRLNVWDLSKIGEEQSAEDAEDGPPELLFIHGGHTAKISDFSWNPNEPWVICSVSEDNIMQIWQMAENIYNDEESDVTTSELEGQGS

Assay [2] concerns the target T2, RBBP4 (1‐ 425) (UniProt Q09028 1-425).
T2 construct: RBBP4 residues 1-425; source: Sf9 (baculovirus), purified (Ni-NTA, Resource Q, Superdex 75)

Assay [3] addresses T3, PHD domain of UHRF1 (UHRF1PHD) (structural Zn2+ ions bound; limits are not given, so they follow the usual UHRF1 PHD structural constructs (about 298-366), which include the N-terminal pre-PHD zinc site; the UniProt PHD-type featu).
T3 chain: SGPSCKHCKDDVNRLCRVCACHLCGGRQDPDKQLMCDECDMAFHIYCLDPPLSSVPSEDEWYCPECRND

T2 sequence (Q09028 whole entry, the tested form may be a part): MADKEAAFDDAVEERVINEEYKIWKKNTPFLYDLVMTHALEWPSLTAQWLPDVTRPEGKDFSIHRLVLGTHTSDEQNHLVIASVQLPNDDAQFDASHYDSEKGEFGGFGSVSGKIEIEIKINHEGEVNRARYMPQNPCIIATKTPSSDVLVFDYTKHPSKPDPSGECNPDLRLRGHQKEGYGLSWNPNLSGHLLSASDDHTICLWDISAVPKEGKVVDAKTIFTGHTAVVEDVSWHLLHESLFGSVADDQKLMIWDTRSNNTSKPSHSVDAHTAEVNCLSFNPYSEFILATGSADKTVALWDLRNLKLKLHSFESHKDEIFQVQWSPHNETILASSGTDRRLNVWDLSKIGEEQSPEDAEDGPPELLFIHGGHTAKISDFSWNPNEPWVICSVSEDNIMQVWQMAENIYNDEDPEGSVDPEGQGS

B1: native H3R2me2a peptide (H3_(1‐15) without diazirine and biotin) (peptide)
peptide: A[Arg(Me2a)]TKQTARKSTGGKA-NH2
notes: Rink amide resin was used for all peptides, so the C-terminus is probably an amide; source: synthetic peptide (Fmoc solid-phase synthesis)
Consider B1, for which the Kd in assay [1] was 15400 nM; in assay [2], roughly 1200 nM.

B2: native H3R2 peptide (H3_(1‐15) without diazirine and biotin) (peptide)
peptide: ARTKQTARKSTGGKA-NH2
notes: Rink amide resin was used for all peptides, so the C-terminus is probably an amide; also called native H3_(1‐15) peptide; source: synthetic peptide (Fmoc solid-phase synthesis)
Take B2: the Kd in assay [3] was 2300 nM.
